Target: HCV E2 antigen (HCV genotype 1b) (hepatitis C virus genotype 1b)

B1: Fab molecule clone 1:11 (Fab, V domains shown)
VH: VQLLEQSGAEVKKPGSSVKVSCKASGGTFSGHVISWVRQAPGQGLEWMGGSISFFGTSNSAQKFQGRVSITADESASTAYMELSSLRSEDTAIYYCAKDPPRFCSGGNCYPGFFQQWGQGTLVTVSS
VL: AELTQSPGTLSLSPGERATLSCGASQSVRSNYLAWYQQKPGQAPRLLIYGVSSRATGIPDRFSGSGSGTDFTLTISRLEPEDFAVYYCQQYGSSPRTFGQGTKLEIK
Q: With B1 as the binder, how does the IC50 read?
A: 0.15 µg/mL
